Numbered stars: 1 amine (or outer) side, 2 acyl side, 3 side chain; on linkers, the order of the positions; unused ones are H or OH. Square brackets hold non-standard residues; d marks the D form. Side chains are listed from the residue outwards. * marks the point of attachment. C20 diacid = O=C(O)CCCCCCCCCCCCCCCCCCC(=O)*; C18 diacid = O=C(O)CCCCCCCCCCCCCCCCC(=O)*; γGlu = O=C(O)[C@H](CCC(=O)[*:2])N[*:1]; AEEA = NCCOCCOCC(=O)O; Aib = CC(C)(N)C(=O)O
B1: Compound 81 (peptide)
peptide: Y[Aib]EGTFTSDYSILLEEQAAREFIEWLLAGGPSSGEASHLSTAQTQRLSAELHRLATLPK([AEEA-AEEA-γGlu-C18 diacid])TETGSGSP-NH2
B2: Compound 83 (peptide)
peptide: H[Aib]HGTFTSDYSILLEEQAAREFIEWLLAGGPSSGEASHLSTAQTQRLSAELHRLK([AEEA-AEEA-γGlu-C18 diacid])TLPRTETGSGSP-NH2
B3: Compound 76 (peptide)
peptide: Y[Aib]EGTFTSDYSILLEEQAAREFIEWLLAGGPSSGAGQAPGQAPGASHLSTAQTQRLSAELHRLATLPK([AEEA-AEEA-γGlu-C20 diacid])TETGSGSP-NH2
B4: Compound 89 (peptide)
peptide: H[Aib]HGTFTSDYSILLEEQAAREFIEWLLAGGPSSGEASHLSTAALGRLSAELHRLK([AEEA-AEEA-γGlu-C18 diacid])TLPRTETGSGSP-NH2
B5: Compound 87 (peptide)
peptide: H[Aib]HGTFTSDYSILLEEQAAREFIEWLLAGGPSSGEASHLSTAALGRLSAK([AEEA-AEEA-γGlu-C18 diacid])LHRLATLPRTETGSGSP-NH2
B6: Compound 90 (peptide)
peptide: H[Aib]HGTFTSDYSILLEEQAAREFIEWLLAGGPSSGEASHLSTAALGRLSAELHRLATLPK([AEEA-AEEA-γGlu-C18 diacid])TETGSGSP-NH2
B7: Compound 79 (peptide)
peptide: Y[Aib]EGTFTSDYSILLEEQAAREFIEWLLAGGPSSGEASHLSTAQTQRLSAK([AEEA-AEEA-γGlu-C18 diacid])LHRLATLPRTETGSGSP-NH2
B8: Compound 88 (peptide)
peptide: H[Aib]HGTFTSDYSILLEEQAAREFIEWLLAGGPSSGEASHLSTAALGRLSAELHK([AEEA-AEEA-γGlu-C18 diacid])LATLPRTETGSGSP-NH2
B9: Compound 85 (peptide)
peptide: H[Aib]HGTFTSDYSILLEEQAAREFIEWLLAGGPSSGEASHLSTAQTQRLSAELHK([AEEA-AEEA-γGlu-C18 diacid])LATLPRTETGSGAP-NH2
B10: Compound 82 (peptide)
peptide: H[Aib]HGTFTSDYSILLEEQAAREFIEWLLAGGPSSGEASHLSTAQTQRLSAK([AEEA-AEEA-γGlu-C18 diacid])LHRLATLPRTETGSGSP-NH2
B11: Compound 84 (peptide)
peptide: H[Aib]HGTFTSDYSILLEEQAAREFIEWLLAGGPSSGEASHLSTAQTQRLSAELHRLATLPK([AEEA-AEEA-γGlu-C18 diacid])TETGSGSP-NH2
B12: Compound 80 (peptide)
peptide: Y[Aib]EGTFTSDYSILLEEQAAREFIEWLLAGGPSSGEASHLSTAQTQRLSAELHRLK([AEEA-AEEA-γGlu-C18 diacid])TLPRTETGSGSP-NH2
B13: Compound 77 (peptide)
peptide: Y[Aib]EGTFTSDYSILLEEQAAREFIEWLLAGGPSSGAGQAPGQAPLASHLSTAQTQRLSAELHK([AEEA-AEEA-γGlu-C20 diacid])LATLPRTETGSGSP-NH2
B14: Compound 86 (peptide)
peptide: H[Aib]HGTFTSDYSILLEEQAAREFIEWLLAGGPSK([AEEA-AEEA-γGlu-C18 diacid])GAPPPSGGGASELSTAALGRLSAELHRLATLPRTETGSGSP-NH2
B15: Compound 78 (peptide)
peptide: H[Aib]HGTFTSDYSILLEEQAAREFIEWLLAGGPSSGAGQAPGQAPGASHLSTAQTQRLSAK([AEEA-AEEA-γGlu-C18 diacid])LHRLATLPRTETGSGSP-NH2

Tests used:
Experiment in all cases: cell-based or functional assay
human GLP-1 receptor [1] = molecular target: T1, human GLP-1 receptor (human, UniProt P43220 24-463)
human GIP receptor [2] = molecular target: T2, human GIP receptor (human, UniProt P48546 22-466)
T2 sequence (looked up): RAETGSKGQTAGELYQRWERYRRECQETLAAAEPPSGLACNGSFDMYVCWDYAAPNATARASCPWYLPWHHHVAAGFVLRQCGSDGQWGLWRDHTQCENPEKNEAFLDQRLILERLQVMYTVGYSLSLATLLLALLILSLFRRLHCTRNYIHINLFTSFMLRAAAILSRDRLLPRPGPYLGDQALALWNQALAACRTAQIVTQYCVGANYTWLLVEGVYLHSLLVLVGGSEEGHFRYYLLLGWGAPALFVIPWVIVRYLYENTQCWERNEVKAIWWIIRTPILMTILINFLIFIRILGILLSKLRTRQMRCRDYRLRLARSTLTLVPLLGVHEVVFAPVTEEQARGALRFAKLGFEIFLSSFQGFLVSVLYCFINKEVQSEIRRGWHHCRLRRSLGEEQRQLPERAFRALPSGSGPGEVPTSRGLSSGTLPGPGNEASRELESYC

[3] = molecular target: T3, human amylin-3(a) receptor (human, UniProt P30988 25-474; O60896 24-148)
T3 sequence (looked up) 1: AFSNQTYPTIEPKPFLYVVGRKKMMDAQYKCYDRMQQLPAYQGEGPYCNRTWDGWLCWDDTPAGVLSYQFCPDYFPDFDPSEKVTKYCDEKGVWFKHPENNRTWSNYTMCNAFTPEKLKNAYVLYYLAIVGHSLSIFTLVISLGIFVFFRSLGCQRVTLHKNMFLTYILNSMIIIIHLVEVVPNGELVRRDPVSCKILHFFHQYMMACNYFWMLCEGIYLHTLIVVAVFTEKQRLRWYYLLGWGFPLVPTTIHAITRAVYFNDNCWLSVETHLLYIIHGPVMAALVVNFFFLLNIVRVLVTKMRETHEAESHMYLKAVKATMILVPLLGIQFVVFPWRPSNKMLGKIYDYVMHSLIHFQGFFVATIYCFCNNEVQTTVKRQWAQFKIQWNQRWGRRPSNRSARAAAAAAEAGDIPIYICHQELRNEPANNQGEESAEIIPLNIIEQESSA
T3 sequence (looked up) 2: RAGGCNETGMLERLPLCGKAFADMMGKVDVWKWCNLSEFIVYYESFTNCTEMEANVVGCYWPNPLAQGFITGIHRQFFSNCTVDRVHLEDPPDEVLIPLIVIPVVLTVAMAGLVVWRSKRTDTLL

human GLP-1 receptor [4] = molecular target: T1, human GLP-1 receptor; remark: listed apart in the source
human GIP receptor [5] = molecular target: T2, human GIP receptor; remark: listed apart in the source
[6] = molecular target: T3, human amylin-3(a) receptor; remark: listed apart in the source

Binder	hGLP-1R Potency, no HSA, EC50 [pM] (human GLP-1 receptor [1])	hGIPR Potency, no HSA, EC50 [pM] (human GIP receptor [2])	hAMYR3 Potency, no HSA, EC50 [pM] [3] [pM]	hGLP-1R Potency, 1% HSA, EC50 [pM] (human GLP-1 receptor [4])	hGIPR Potency, 1% HSA, EC50 [pM] (human GIP receptor [5])	hAMYR3 Potency, 1% HSA, EC50 [pM] [6] [pM]
B1	16	3.31	4.07	51.4	15.8	188
B2	2.3	2.92	2.9	9.89	13.6	45.7
B3	19.9	2.82	3.11	63.6	11.1	430
B4	3.86	6.47	3.12	29.5	30.6	39.7
B5	8.49	7.26	4.99	39.3	38.6	36.5
B6	4.16	5.4	5.45	38.6	32.5	183
B7	38.7	4.7	3.53	168	24.7	53.4
B8	4.12	5.68	3.7	48.8	40.4	102
B9	3.52	2.71	4.4	30.3	14.6	250
B10	3.45	3.7	3.26	24.2	19.1	38
B11	3.31	3	4.41	25.9	11.6	175
B12	24.8	4.01	3.23	111	20.2	62.4
B13	19.7	2.53	3.13	51.4	13.4	382
B14	6.69	5.11	3.31	130	122	58.4
B15	4.03	3.49	1.83	17.8	10.4	17.1

Reference: patent publication US20260174875A1 (Novo Nordisk A/S, priority 2023, published 2026)
